{"source": "patent US20080004209", "key": {"[1]": {"tested_on": "alkylated and reduced resistin", "sequence (Q9HD89 19-108)": "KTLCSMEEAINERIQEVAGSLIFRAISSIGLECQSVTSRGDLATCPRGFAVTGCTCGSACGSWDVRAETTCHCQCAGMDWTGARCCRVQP"}, "[2]": {"tested_on": "native resistin", "sequence (Q9HD89 19-108)": "as above"}}}
{"substance": "HIV-1 protease", "values": [{"measurement": "cleavage of resistin in vitro (24 hr digestion, SDS-PAGE)", "setting": "[1]", "value": "incubation with HIV-1 protease, cathepsin D and cathepsin E resulted in the appearance of a ca. 7 kDa resistin cleavage product"}]}
{"substance": "cathepsin D", "values": [{"measurement": "cleavage of resistin in vitro (24 hr digestion, SDS-PAGE)", "setting": "[1]", "value": "incubation with HIV-1 protease, cathepsin D and cathepsin E resulted in the appearance of a ca. 7 kDa resistin cleavage product"}]}
{"substance": "cathepsin E", "values": [{"measurement": "cleavage of resistin in vitro (24 hr digestion, SDS-PAGE)", "setting": "[1]", "value": "incubation with HIV-1 protease, cathepsin D and cathepsin E resulted in the appearance of a ca. 7 kDa resistin cleavage product"}]}
{"substance": "trypsin", "values": [{"measurement": "proteolytic cleavage (preliminary protease digestion experiments, data not shown)", "setting": "[2]", "value": "native resistin was refractory to proteolytic cleavage by trypsin, suggestive of a highly folded state (data not shown)"}, {"measurement": "cleavage of resistin in vitro (24 hr digestion, SDS-PAGE)", "setting": "[1]", "value": "resistin was completely degraded by the non-specific protease, trypsin"}]}
